# Target: TDP-43 RRM1 (human, UniProt Q13148 101-191)
# Assay: X-ray crystallography; crystals at pH 5.5, PEG 3350, ammonium acetate; Co-crystallization, protein:DNA 1:1.2; protein in 50 mM HEPES pH 7.5, 100 mM NaCl, 10 mM bME; hanging drop at room temperature (stated for RRM1/DNA). (TG)15 Kd
# Conditions: protein: recombinant; tags: N-terminal His; single strand; 8 and 9 nt modelled in the two RRM1 complexes
# Sequence of TDP-43 RRM1 (Q13148 101-191): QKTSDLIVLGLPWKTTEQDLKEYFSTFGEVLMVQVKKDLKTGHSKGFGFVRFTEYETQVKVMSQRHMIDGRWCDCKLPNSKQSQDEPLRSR
binder,measurement,value
"GTTGAGCGTT (ssDNA, none) [10-nt ssDNA]",binding result,binds

# Reference: publication PMC4756693, “Structural analysis of disease-related TDP-43 D169G mutation: linking enhanced stability and caspase cleavage efficiency to protein accumulation”
